Legend:
Test in all cases: SPR
human FcγRIIIa V158 = human FcγRIIIa V158 (human, UniProt P08637)
human FcγRIa = molecular target: T1, human FcγRIa (human, UniProt P12314)
T1 chain: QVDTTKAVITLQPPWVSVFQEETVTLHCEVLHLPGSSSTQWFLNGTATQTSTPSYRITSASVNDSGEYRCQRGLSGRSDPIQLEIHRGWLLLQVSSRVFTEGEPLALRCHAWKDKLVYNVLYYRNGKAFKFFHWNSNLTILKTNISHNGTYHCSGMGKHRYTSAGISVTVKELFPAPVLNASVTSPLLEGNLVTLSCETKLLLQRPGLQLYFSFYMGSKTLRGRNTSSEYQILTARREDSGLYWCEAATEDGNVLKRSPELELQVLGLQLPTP

human FcγRIIa H131 = molecular target: T2, human FcγRIIa H131 (human, UniProt P12318)
T2 chain: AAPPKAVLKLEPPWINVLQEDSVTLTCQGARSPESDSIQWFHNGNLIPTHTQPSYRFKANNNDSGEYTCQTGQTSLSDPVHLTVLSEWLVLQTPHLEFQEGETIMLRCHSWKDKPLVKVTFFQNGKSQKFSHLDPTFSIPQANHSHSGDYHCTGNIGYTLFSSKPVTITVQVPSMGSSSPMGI

human FcγRIIb = molecular target: T3, human FcγRIIb (human, UniProt P31994)
T3 chain: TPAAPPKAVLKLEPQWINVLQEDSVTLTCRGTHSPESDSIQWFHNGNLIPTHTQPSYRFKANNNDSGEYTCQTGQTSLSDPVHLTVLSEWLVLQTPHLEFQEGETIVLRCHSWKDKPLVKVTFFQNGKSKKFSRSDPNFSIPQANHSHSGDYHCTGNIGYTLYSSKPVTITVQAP

Chain of human FcγRIIIa V158 (P08637 17-208 F176V): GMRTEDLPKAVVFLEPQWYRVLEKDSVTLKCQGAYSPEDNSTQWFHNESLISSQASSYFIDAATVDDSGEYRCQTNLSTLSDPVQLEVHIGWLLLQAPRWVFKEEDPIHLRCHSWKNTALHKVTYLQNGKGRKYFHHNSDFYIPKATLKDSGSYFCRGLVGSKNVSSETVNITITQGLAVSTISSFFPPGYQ

B1: IL6R-BP493 (antibody)
chain 1: QVQLQESGPGLVKPSETLSLTCAVSGHSISHDHAWSWVRQPPGEGLEWIGFISYSGITNYNPSLQGRVTISRDNSKNTLYLQMNSLRAEDTAVYYCARSLARTTAMDYWGEGTLVTVSSASTKGPSVFPLAPSSKSTSGGTAALGCLVKDYFPEPVTVSWNSGALTSGVHTFPAVLQSSGLYSLSSVVTVPSSSLGTQTYICNVNHKPSNTKVDKKVEPKSCDKTHTCPPCPAPELLGGDSVFLFPPKPKDTLMISRTPEVTCVVIDVAEEDGEVKFNWYVDGVEVHNAKTKPREEQDNSTYRVVSVLTVLHQDWLNGKEYKCKVSNKALPAPIEKTISKAKGQPREPQVYTLPPSRDELTKNQVSLTCLVKGFYPSDIAVEWESNGQPENNYKTTPPVLDSDGSFFLYSKLTVDKSRWQQGNVFSCSVMHEALHNHYTQESLSLSP
chain 2: not shown
Q: Which results are given for B1?
A: Kd (human FcγRIIIa V158): 35 µM; Kd (human FcγRIa): 0.00082 µM; Kd (human FcγRIIa H131): 19 µM; Kd (human FcγRIIb): 0.021 µM

B2: IL6R-BP501 (antibody)
chain 1: QVQLQESGPGLVKPSETLSLTCAVSGHSISHDHAWSWVRQPPGEGLEWIGFISYSGITNYNPSLQGRVTISRDNSKNTLYLQMNSLRAEDTAVYYCARSLARTTAMDYWGEGTLVTVSSASTKGPSVFPLAPSSKSTSGGTAALGCLVKDYFPEPVTVSWNSGALTSGVHTFPAVLQSSGLYSLSSVVTVPSSSLGTQTYICNVNHKPSNTKVDKKVEPKSCDKTHTCPPCPAPELLGDDSVFLFPPKPKDTLMISRTPEVTCVVIDVAEEDGEVKFNWYVDGVEVHNAKTKPREEQYNSTYRVVSVLTVLHQDWLNGKEYKCKVSNKALPAPIEKTISKAKGQPREPQVYTLPPSRDELTKNQVSLTCLVKGFYPSDIAVEWESNGQPENNYKTTPPVLDSDGSFFLYSKLTVDKSRWQQGNVFSCSVMHEALHNHYTQESLSLSP
chain 2: not shown
Q: B2 was tested. Which Kd (human FcγRIIIa V158) did it give?
A: 19 µM

Q: And the Kd (human FcγRIa)?
A: 0.0021 µM

Q: What about the Kd (human FcγRIIa H131) of the same binder?
A: 14 µM

Q: And the Kd (human FcγRIIb)?
A: 0.025 µM

B3: IL6R-BP430 (antibody)
chain 1: QVQLQESGPGLVKPSETLSLTCAVSGHSISHDHAWSWVRQPPGEGLEWIGFISYSGITNYNPSLQGRVTISRDNSKNTLYLQMNSLRAEDTAVYYCARSLARTTAMDYWGEGTLVTVSSASTKGPSVFPLAPSSKSTSGGTAALGCLVKDYFPEPVTVSWNSGALTSGVHTFPAVLQSSGLYSLSSVVTVPSSSLGTQTYICNVNHKPSNTKVDKKVEPKSCDKTHTCPPCPAPDLLGDDSVFLFPPKPKDTLMISRTPEVTCVVVDLGEEDGEVKFNWYVDGVEVHNAKTKPREEQYNSTYRVVSVLTVLHQDWLNGKEYKCKVSNKALPRPIEKTISKAKGQPREPQVYTLPPSRDELTKNQVSLTCLVKGFYPSDIAVEWESNGQPENNYKTTPPVLDSDGSFFLYSKLTVDKSRWQQGNVFSCSVMHEALHNHYTQESLSLSP
chain 2: not shown
Q: For B3, which Kd (human FcγRIIa H131) is on record?
A: 38 µM

B4: IL6R-BP495 (antibody)
chain 1: QVQLQESGPGLVKPSETLSLTCAVSGHSISHDHAWSWVRQPPGEGLEWIGFISYSGITNYNPSLQGRVTISRDNSKNTLYLQMNSLRAEDTAVYYCARSLARTTAMDYWGEGTLVTVSSASTKGPSVFPLAPSSKSTSGGTAALGCLVKDYFPEPVTVSWNSGALTSGVHTFPAVLQSSGLYSLSSVVTVPSSSLGTQTYICNVNHKPSNTKVDKKVEPKSCDKTHTCPPCPAPELLGDDSVFLFPPKPKDTLMISRTPEVTCVVVDVGEEDGEVKFNWYVDGVEVHNAKTKPREEQDNSTYRVVSVLTVLHQDWLNGKEYKCKVSNKALPRPIEKTISKAKGQPREPQVYTLPPSRDELTKNQVSLTCLVKGFYPSDIAVEWESNGQPENNYKTTPPVLDSDGSFFLYSKLTVDKSRWQQGNVFSCSVMHEALHNHYTQESLSLSP
chain 2: not shown
Q: How did the Kd (human FcγRIIIa V158) turn out when B4 was run?
A: 33 µM

Q: And the Kd (human FcγRIa)?
A: 0.0083 µM

Q: And the Kd (human FcγRIIa H131)?
A: 12 µM

Q: And the Kd (human FcγRIIb)?
A: 0.0097 µM

B5: IL6R-BP510 (antibody)
chain 1: QVQLQESGPGLVKPSETLSLTCAVSGHSISHDHAWSWVRQPPGEGLEWIGFISYSGITNYNPSLQGRVTISRDNSKNTLYLQMNSLRAEDTAVYYCARSLARTTAMDYWGEGTLVTVSSASTKGPSVFPLAPSSKSTSGGTAALGCLVKDYFPEPVTVSWNSGALTSGVHTFPAVLQSSGLYSLSSVVTVPSSSLGTQTYICNVNHKPSNTKVDKKVEPKSCDKTHTCPPCPAPELLGDDSVFLFPPKPKDTLMISRTPEVTCVVIDVAEEDGPVKFNWYVDGVEVHNAKTKPREEQYNSTYRVVSVLTVLHQDWLNGKEYKCKVSNKALPRPIEKTISKAKGQPREPQVYTLPPSRDELTKNQVSLTCLVKGFYPSDIAVEWESNGQPENNYKTTPPVLDSDGSFFLYSKLTVDKSRWQQGNVFSCSVMHEALHNHYTQESLSLSP
chain 2: not shown
Q: With B5 as the binder, how does the Kd (human FcγRIIIa V158) read?
A: 25 µM

Q: What about the Kd (human FcγRIa) of the same binder?
A: 0.006 µM

Q: And the Kd (human FcγRIIa H131)?
A: 4 µM

Q: What about the Kd (human FcγRIIb) of the same binder?
A: 0.0038 µM

B6: IL6R-BP266 (antibody)
chain 1: QVQLQESGPGLVKPSETLSLTCAVSGHSISHDHAWSWVRQPPGEGLEWIGFISYSGITNYNPSLQGRVTISRDNSKNTLYLQMNSLRAEDTAVYYCARSLARTTAMDYWGEGTLVTVSSASTKGPSVFPLAPSSKSTSGGTAALGCLVKDYFPEPVTVSWNSGALTSGVHTFPAVLQSSGLYSLSSVVTVPSSSLGTQTYICNVNHKPSNTKVDKKVEPKSCDKTHTCPPCPAPDLLGDDSVFLFPPKPKDTLMISRTPEVTCVVVDVSEEDGEVKFNWYVDGVEVHNAKTKPREEQYNSTYRVVSVLTVLHQDWLNGKEYKCKVSNKALPRPIEKTISKAKGQPREPQVYTLPPSRDELTKNQVSLTCLVKGFYPSDIAVEWESNGQPENNYKTTPPVLDSDGSFFLYSKLTVDKSRWQQGNVFSCSVMHEALHNHYTQESLSLSP
chain 2: not shown
Q: Which results are given for B6?
A: Kd (human FcγRIIIa V158): 40 µM; Kd (human FcγRIIa H131): 13 µM

B7: IL6R-BP426 (antibody)
chain 1: QVQLQESGPGLVKPSETLSLTCAVSGHSISHDHAWSWVRQPPGEGLEWIGFISYSGITNYNPSLQGRVTISRDNSKNTLYLQMNSLRAEDTAVYYCARSLARTTAMDYWGEGTLVTVSSASTKGPSVFPLAPSSKSTSGGTAALGCLVKDYFPEPVTVSWNSGALTSGVHTFPAVLQSSGLYSLSSVVTVPSSSLGTQTYICNVNHKPSNTKVDKKVEPKSCDKTHTCPPCPAPDLLGDDSVFLFPPKPKDTLMISRTPEVTCVVVDVAEDDGEVKFNWYVDGVEVHNAKTKPREEQYNSTYRVVSVLTVLHQDWLNGKEYKCKVSNKALPRPIEKTISKAKGQPREPQVYTLPPSRDELTKNQVSLTCLVKGFYPSDIAVEWESNGQPENNYKTTPPVLDSDGSFFLYSKLTVDKSRWQQGNVFSCSVMHEALHNHYTQESLSLSP
chain 2: not shown
Q: How did the Kd (human FcγRIa) turn out when B7 was run?
A: 0.001 µM

Q: What about the Kd (human FcγRIIa H131) of the same binder?
A: 19 µM

B8: IL6R-BP423 (antibody)
chain 1: QVQLQESGPGLVKPSETLSLTCAVSGHSISHDHAWSWVRQPPGEGLEWIGFISYSGITNYNPSLQGRVTISRDNSKNTLYLQMNSLRAEDTAVYYCARSLARTTAMDYWGEGTLVTVSSASTKGPSVFPLAPSSKSTSGGTAALGCLVKDYFPEPVTVSWNSGALTSGVHTFPAVLQSSGLYSLSSVVTVPSSSLGTQTYICNVNHKPSNTKVDKKVEPKSCDKTHTCPPCPAPDLLGDDSVFLFPPKPKDTLMISRTPEVTCVVVDVAEEDGEVKFNWYVDGVEVHNAKTKPREEQYNSTYRVVSVLTVLHQDWLNGKEYKCKVSNKALPRPIEKTISKAKGQPREPQVYTLPPSRDELTKNQVSLTCLVKGFYPSDIAVEWESNGQPENNYKTTPPVLDSDGSFFLYSKLTVDKSRWQQGNVFSCSVMHEALHNHYTQESLSLSP
chain 2: not shown
Q: For B8, which Kd (human FcγRIIa H131) is on record?
A: 2 µM

B9: IL6R-BP435 (antibody)
chain 1: QVQLQESGPGLVKPSETLSLTCAVSGHSISHDHAWSWVRQPPGEGLEWIGFISYSGITNYNPSLQGRVTISRDNSKNTLYLQMNSLRAEDTAVYYCARSLARTTAMDYWGEGTLVTVSSASTKGPSVFPLAPSSKSTSGGTAALGCLVKDYFPEPVTVSWNSGALTSGVHTFPAVLQSSGLYSLSSVVTVPSSSLGTQTYICNVNHKPSNTKVDKKVEPKSCDKTHTCPPCPAPDLLGDDSVFLFPPKPKDTLMISRTPEVTCVVVDVSDEDGEVKFNWYVDGVEVHNAKTKPREEQDNSTYRVVSVLTVLHQDWLNGKEYKCKVSNAALPRPTEKTISKAKGQPREPQVYTLPPSRDELTKNQVSLTCLVKGFYPSDIAVEWESNGQPENNYKTTPPVLDSDGSFFLYSKLTVDKSRWQQGNVFSCSVMHEALHNHYTQESLSLSP
chain 2: not shown
Q: How did the Kd (human FcγRIa) turn out when B9 was run?
A: 0.001 µM

B10: IL6R-BP436 (antibody)
chain 1: QVQLQESGPGLVKPSETLSLTCAVSGHSISHDHAWSWVRQPPGEGLEWIGFISYSGITNYNPSLQGRVTISRDNSKNTLYLQMNSLRAEDTAVYYCARSLARTTAMDYWGEGTLVTVSSASTKGPSVFPLAPSSKSTSGGTAALGCLVKDYFPEPVTVSWNSGALTSGVHTFPAVLQSSGLYSLSSVVTVPSSSLGTQTYICNVNHKPSNTKVDKKVEPKSCDKTHTCPPCPAPDLLGDDSVFLFPPKPKDTLMISRTPEVTCVVVDVAEEDGEVKFNWYVDGVEVHNAKTKPREEQDNSTYRVVSVLTVLHQDWLNGKEYKCKVSNKALPRPTEKTISKAKGQPREPQVYTLPPSRDELTKNQVSLTCLVKGFYPSDIAVEWESNGQPENNYKTTPPVLDSDGSFFLYSKLTVDKSRWQQGNVFSCSVMHEALHNHYTQESLSLSP
chain 2: not shown
Q: Which Kd (human FcγRIIIa V158) does the source give for B10 here?
A: 23 µM

From patent publication US11827699 (dated 2023)
